The target of assay [1] is T1, colFD-NL.
T1 chain: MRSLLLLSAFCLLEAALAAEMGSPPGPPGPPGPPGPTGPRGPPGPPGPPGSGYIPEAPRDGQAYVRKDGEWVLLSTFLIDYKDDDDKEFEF
The assay can be described thus: BRET. Conditions: chain shown with the change; in the ER of HEK293 cells; n = 4; parent: est. 100; read off a plot.

Assay [2] addresses T1, colFD-NL. The assay can be described thus: BRET. The following applies: chain shown with the change; in the ER of HEK293 cells; n = 4; parent: est. 100; read off a plot.
For assay [3], the target named is Collagen (pig's skin type I-C (Nitta Gelatin Inc.)) (pig). Description: SPR; Biacore T200; collagen amine-coupled to a CM5 chip (∼2,000 response units), rmHsp47 injected; 10 mM HEPES, 0.15 M NaCl, 0.05% surfactant P20, pH 7.4; 25 °C; kobs linearization method (Anabel).
In assay [4] the target is colFD-NL (bacteriophage T4). The assay can be described thus: FRET or BRET; NanoBRET in the ER of living, transiently transfected HeLa cells; colFD-NL donor, Hsp47-HT with HT ligand 618 acceptor; 37 °C.
Assay [5] has as its target colFD-NL (bacteriophage T4). Description: FRET or BRET; NanoBRET in the ER of living, transiently transfected HEK293 cells; colFD-NL (NanoLuc) donor, Hsp47-HT with HT ligand 618 (20-100 nM) acceptor; cells washed, furimazine added, 37 °C; BRET ratio 618/460 nm (mBU); some panels with Col003 and derivatives (2 h) or α,α-dipyridyl; the cell line is not named for every panel.

This is an account of results in PMC6827286.

Changes are numbered by the printed parent chain. Names may count otherwise.

B1: Hsp47-HT, P19324 I352A (protein)
chain: AEVKKPLEAAAPGTAEKLSSKATTLAERSTGLAFSLYQAMAKDQAVENILLSPLVVASSLGLVSLGGKATTASQAKAVLSAEKLRDEEVHTGLGELLRSLSNSTARNVTWKLGSRLYGPSSVSFADDFVRSSKQHYNCEHSKINFRDKRSALQSINEWASQTTDGKLPEVTKDVERTDGALLVNAMFFKPHWDEKFHHKMVDNRGFMVTRSYTVGVTMMHRTGLYNYYDDEKEKLQMVEMPLAHKLSSLIILMPHHVEPLERLEKLLTKEQLKAWMGKMQKKAVAISLPKGVVEVTHDLQKHLAGLGLTEAIDKNKADLSRMSGKKDLYLASVFHATAFEWDTEGNPFDQDAYGREELRSPKLFYADHPFIFLVRDNQSGSLLFIGRLVRPKGDKMRDEL
For the molecule B1, the percent of parent was determined as 86% with colFD-NL [1] and 85% in the assay with colFD-NL [2].

B2: recombinant mouse Hsp47 (rmHsp47) WT (natural protein)
chain: B1 chain with A352I
B2: the Kd in assay [3] came out at 1.5 µM.

B3: recombinant mouse Hsp47 (rmHsp47) I352A (natural protein)
chain: B1 chain
B3 showed a Kd in assay [3] of 3.3 µM.

B4: recombinant mouse Hsp47 (rmHsp47) Y353A (natural protein)
chain: B1 chain with A352I, Y353A
As to B4, the Kd in assay [3] amounted to 3.6 µM.

B5: Hsp47-HT (natural protein)
chain: B1 chain with A352I
modifications: HaloTag fluorescent ligand 618 on the HaloTag
As for B5, the BRET ratio (donor to acceptor 1:100, HeLa) in assay [4] stood at 25 mBU. Further, the BRET ratio (donor to acceptor 1:50, HEK293) in assay [5] is 40 mBU.
